For this test, the target named is Torpedo nicotinic acetylcholine receptor (nAChR-enriched membranes) (Torpedo (species not stated)) (UniProt P02710).

For the substance “Pichia-expressed, purified recombinant α-bungarotoxin (rBgtx) (from UniProt P60615 22-95) (ligand)”, the reduction in 125I-Bgtx bound is 45%.

The values above are taken from patent US6753315.
